{"source": "paper PMC4136701", "about": "“A Conserved Cysteine Residue of Bacillus subtilis SpoIIIJ Is Important for Endospore Development” (PLoS ONE, 2014)", "molecules": {"B1": {"name": "SpoIIIJ-His6 (natural protein, Bacillus subtilis, UniProt Q01625 23-261, looked up)", "chain": "CSSVKEPITADSPHFWDKYVVYPLSELITYVAKLTGDNYGLSIILVTILIRLLILPLMIKQLRSSKAMQALQPEMQKLKEKYSSKDQKTQQKLQQETMALFQKHGVNPLAGCFPILIQMPILIGFYHAIMRTQAISEHSFLWFDLGEKDPYYILPIVAGVATFVQQKLMMAGNAQQNPQMAMMLWIMPIMIIVFAINFPAALSLYWVVGNLFMIAQTFLIKGPDIKKNPEPQKAGGKKK", "modifications": "Cys23 of the lipoprotein-type signal peptide is modified during insertion of the protein into the membrane", "notes": "SpoIIIJ, membrane protein insertase of the YidC/Oxa1/Alb3 family, Bacillus subtilis; calculated mass 27 kDa; Purified protein is a mixture of monomers and dimers; it also holds proteolytic products starting at L122; also called full-length mature SpoIIIJ-His6; SpoIIIJ^wt-His6; source: E. coli C43(DE3) bearing pMS266, membrane fraction solubilised with 2% DDM, purified (Ni2+-NTA); not shown: His6, …"}, "B2": {"name": "truncated SpoIIIJ-His6 starting at L122 (fragment \"c\", lacking TM1) (domain or fragment, Bacillus subtilis, UniProt Q01625 122-261, looked up)", "chain": "LFQKHGVNPLAGCFPILIQMPILIGFYHAIMRTQAISEHSFLWFDLGEKDPYYILPIVAGVATFVQQKLMMAGNAQQNPQMAMMLWIMPIMIIVFAINFPAALSLYWVVGNLFMIAQTFLIKGPDIKKNPEPQKAGGKKK", "notes": "SpoIIIJ, Bacillus subtilis; about 16 kDa product of cleavage at L122 in the cytoplasmic loop between TM1 and TM2: the rest of that loop to the end of the protein (includes TM2 with Cys134); Two species of about 15 kDa both start at L122; The cause of their different mobility is not known; also called band c; truncated SpoIIIJ monomer (lacking TM1); source: E. coli C43(DE3), proteolytic product …"}}, "key": {"[1]": {"molecular_target": "SpoIIIJ^C134A-His6 (Bacillus subtilis) (UniProt Q01625)", "test": "SEC; Superose 12 HR 10/30; 20 mM Tris-HCl pH 7.6, 10% glycerol, 0.5 M NaCl, 0.1% DDM, 100 mM imidazole; fractions immunoblotted; peak areas estimated with ImageJ"}, "[2]": {"molecular_target": "the molecule itself", "test": "SEC; Superose 12 HR 10/30; 20 mM Tris-HCl pH 7.6, 10% glycerol, 0.5 M NaCl, 0.1% DDM, 100 mM imidazole; fractions immunoblotted; peak areas estimated with ImageJ"}, "[3]": {"molecular_target": "the molecule itself", "test": "SDS-PAGE with or without reducing agent; purified protein in loading buffer with (100 mM) or without DTT; Coomassie staining or immunoblot with anti-His6; bands a and b cut out and run again"}, "[4]": {"molecular_target": "B1", "test": "SDS-PAGE with or without reducing agent; purified protein in loading buffer with (100 mM) or without DTT; Coomassie staining or immunoblot with anti-His6; bands a and b cut out and run again", "details": "both partners purified"}}}
{"molecule": "SpoIIIJ^C134A-His6 (from UniProt Q01625 23-261) (natural protein)", "values": [{"measurement": "ratio of peak areas B (monomer size) to A (dimer size) (peak B : peak A)", "setting": "[1]", "value": 0.4}]}
{"molecule": "B1", "values": [{"measurement": "ratio of peak areas B (monomer size) to A (dimer size)", "setting": "[2]", "value": "0.111 peak B : peak A"}, {"measurement": "stoichiometry N", "setting": "[2]", "value": "~2"}, {"measurement": "stoichiometry N", "setting": "[3]", "value": 2}]}
{"molecule": "B2", "values": [{"measurement": "binding result", "setting": "[4]", "value": "binds"}]}
